This is an account of results in the supplement of paper PMC9112550, “Optimization of the antimicrobial peptide Bac7 by deep mutational scanning” (BMC Biology, 2022).
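Note: peptides expressed intracellularly from a pBAD plasmid library in pooled LB shake-flask culture, induced with 0.3% L-arabinose, DNA abundance read by NGS, three biological replicates, DESeq2 with apeglm shrinkage.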

For the data set, the system named is Escherichia coli TOP10. Description: shrunken log2 fold change of peptide-encoding DNA abundance (4.5 h post-induction vs induction); higher = less antimicrobial activity (less host growth inhibition). To be noted: time post-induction: 4.5 h; library: site-saturation at positions 5, 18, 19, 20.
In the case of RRIRDRPPRLPRPRPRPSPPPRP, the “shrunken log2 fold change” value is -0.15. For RRIRFRPPRLPRPRPRPTHLPRP the value was 0.222; for RRIRDRPPRLPRPRPRPLKRPRP, -0.0492. As for RRIRVRPPRLPRPRPRPIRDPRP, the figure is 0.0875; as for RRIRDRPPRLPRPRPRPYRFPRP, -0.0178. Turning to RRIRRRPPRLPRPRPRPRHLPRP, the “shrunken log2 fold change” value was determined as 0.197. With RRIRWRPPRLPRPRPRPLIIPRP, the “shrunken log2 fold change” value is -0.269.

On to RRIRQRPPRLPRPRPRPELGPRP, for which the “shrunken log2 fold change” value stood at 0.0387. Turning to RRIRDRPPRLPRPRPRPSHKPRP, the “shrunken log2 fold change” value is -0.373.

For the sequence RRIRVRPPRLPRPRPRPHQGPRP, the “shrunken log2 fold change” value amounted to 0.105. In the case of RRIRWRPPRLPRPRPRPDNDPRP, the “shrunken log2 fold change” value was -0.0628. Consider RRIRARPPRLPRPRPRPMRPPRP, for which the “shrunken log2 fold change” value is 0.342. Regarding RRIRSRPPRLPRPRPRPIQNPRP, the “shrunken log2 fold change” value was -0.119. RRIRDRPPRLPRPRPRPDNHPRP: the “shrunken log2 fold change” value is -0.107.

As for RRIRTRPPRLPRPRPRPVTCPRP, the “shrunken log2 fold change” value is -0.0382. As to RRIRFRPPRLPRPRPRPLIEPRP, the “shrunken log2 fold change” value is -0.132. In the case of RRIRWRPPRLPRPRPRPCFKPRP, the “shrunken log2 fold change” value came out at 0.0478. Take RRIRERPPRLPRPRPRPGRMPRP: the “shrunken log2 fold change” value turned out to be 0.0231.

Turning to RRIRNRPPRLPRPRPRPHPQPRP, the “shrunken log2 fold change” value is -0.106.

Take RRIRNRPPRLPRPRPRPWPRPRP: the “shrunken log2 fold change” value was -0.0347.

On to RRIRFRPPRLPRPRPRPWTNPRP, for which the “shrunken log2 fold change” value was -0.289. For the sequence RRIRQRPPRLPRPRPRPILPPRP, the “shrunken log2 fold change” value came to 0.0747. For RRIRCRPPRLPRPRPRPAHLPRP, the “shrunken log2 fold change” value is -0.104. For RRIRVRPPRLPRPRPRPDNAPRP the value was -0.501; for RRIRTRPPRLPRPRPRPTQHPRP, 0.22. For RRIRDRPPRLPRPRPRPHTQPRP the value was -0.455; for RRIRPRPPRLPRPRPRPIEFPRP, -0.114; for RRIRLRPPRLPRPRPRPAMHPRP, 0.0794.

Take RRIRYRPPRLPRPRPRPFGVPRP: the “shrunken log2 fold change” value is -0.306. For the sequence RRIRRRPPRLPRPRPRPDNVPRP, the “shrunken log2 fold change” value was -0.211. RRIRDRPPRLPRPRPRPAKHPRP: the “shrunken log2 fold change” value is 0.0985. As for RRIRERPPRLPRPRPRPAEEPRP, the figure is -0.175. Take RRIRLRPPRLPRPRPRPIHTPRP: the “shrunken log2 fold change” value is -0.133. RRIRMRPPRLPRPRPRPSHKPRP: the “shrunken log2 fold change” value is -0.183. As to RRIRIRPPRLPRPRPRPLDRPRP, the “shrunken log2 fold change” value was determined as 0.00847. RRIRNRPPRLPRPRPRPHMDPRP: the “shrunken log2 fold change” value was -0.384. For the sequence RRIRGRPPRLPRPRPRPYRDPRP, the “shrunken log2 fold change” value turned out to be 0.528.

Take RRIRCRPPRLPRPRPRPLYVPRP: the “shrunken log2 fold change” value was -0.833. With RRIRMRPPRLPRPRPRPVPSPRP, the “shrunken log2 fold change” value is 0.588. As for RRIRWRPPRLPRPRPRPKMDPRP, the figure is 0.135; as for RRIRFRPPRLPRPRPRPNCYPRP, -0.435; as for RRIRWRPPRLPRPRPRPRRFPRP, 0.269. Turning to RRIRMRPPRLPRPRPRPLNPPRP, the “shrunken log2 fold change” value amounted to 0.0743.

On to RRIRRRPPRLPRPRPRPPMMPRP, for which the “shrunken log2 fold change” value worked out at 0.21. Regarding RRIRPRPPRLPRPRPRPIPSPRP, the “shrunken log2 fold change” value is 0.00576. On to RRIRVRPPRLPRPRPRPDITPRP, for which the “shrunken log2 fold change” value is -0.305. With RRIRIRPPRLPRPRPRPCSFPRP, the “shrunken log2 fold change” value is -0.45. RRIRSRPPRLPRPRPRPDMFPRP: the “shrunken log2 fold change” value is -0.212. For RRIRGRPPRLPRPRPRPSAKPRP the value was 1.12. On to RRIRMRPPRLPRPRPRPHKAPRP, for which the “shrunken log2 fold change” value amounted to 0.000331.

With RRIRLRPPRLPRPRPRPWIDPRP, the “shrunken log2 fold change” value was -0.0305.

With RRIRPRPPRLPRPRPRPYELPRP, the “shrunken log2 fold change” value was -0.0423.

As for RRIRSRPPRLPRPRPRPADDPRP, the “shrunken log2 fold change” value stood at 0.479. For the sequence RRIRHRPPRLPRPRPRPEYAPRP, the “shrunken log2 fold change” value stood at 0.0953. For RRIRHRPPRLPRPRPRPECVPRP the value was 0.321. In the case of RRIRIRPPRLPRPRPRPCARPRP, the “shrunken log2 fold change” value stood at 0.039. As to RRIRARPPRLPRPRPRPATVPRP, the “shrunken log2 fold change” value worked out at 0.214.

Take RRIRWRPPRLPRPRPRPCWLPRP: the “shrunken log2 fold change” value was -0.119. For RRIRIRPPRLPRPRPRPDKMPRP, the “shrunken log2 fold change” value is -0.473. With RRIRSRPPRLPRPRPRPFSQPRP, the “shrunken log2 fold change” value was -1.07. In the case of RRIRLRPPRLPRPRPRPSNNPRP, the “shrunken log2 fold change” value was -0.928.

As to RRIRHRPPRLPRPRPRPNKMPRP, the “shrunken log2 fold change” value is -0.0582.

As to RRIRSRPPRLPRPRPRPIWWPRP, the “shrunken log2 fold change” value came to 0.361. RRIRPRPPRLPRPRPRPDDYPRP: the “shrunken log2 fold change” value was 0.0238.

For the sequence RRIRVRPPRLPRPRPRPQDAPRP, the “shrunken log2 fold change” value is -0.443.

Turning to RRIRLRPPRLPRPRPRPFCSPRP, the “shrunken log2 fold change” value amounted to 1.91. As for RRIRRRPPRLPRPRPRPDGAPRP, the figure is 0.766. In the case of RRIRDRPPRLPRPRPRPQWSPRP, the “shrunken log2 fold change” value is -0.0128. Consider RRIRCRPPRLPRPRPRPFNFPRP, for which the “shrunken log2 fold change” value is -0.813. For RRIRSRPPRLPRPRPRPDNKPRP the value was -0.256. RRIRVRPPRLPRPRPRPYKDPRP: the “shrunken log2 fold change” value was -0.933. In the case of RRIRIRPPRLPRPRPRPYPAPRP, the “shrunken log2 fold change” value was -0.331.

Consider RRIRPRPPRLPRPRPRPVHNPRP, for which the “shrunken log2 fold change” value was -0.038. For RRIRYRPPRLPRPRPRPPHDPRP the value was -0.383; for RRIRRRPPRLPRPRPRPITYPRP, -0.0184. Regarding RRIRFRPPRLPRPRPRPVHVPRP, the “shrunken log2 fold change” value was -0.191. RRIRNRPPRLPRPRPRPYISPRP: the “shrunken log2 fold change” value came to 0.00753. In the case of RRIRTRPPRLPRPRPRPHSPPRP, the “shrunken log2 fold change” value was -0.278.

As for RRIRQRPPRLPRPRPRPHVWPRP, the “shrunken log2 fold change” value was 0.03. As to RRIRNRPPRLPRPRPRPTGAPRP, the “shrunken log2 fold change” value is 0.256. RRIRDRPPRLPRPRPRPTEWPRP: the “shrunken log2 fold change” value amounted to 0.531.

Take RRIRWRPPRLPRPRPRPFECPRP: the “shrunken log2 fold change” value is -0.01.

As to RRIRIRPPRLPRPRPRPEYHPRP, the “shrunken log2 fold change” value is -0.152. As for RRIRKRPPRLPRPRPRPYTQPRP, the figure is -0.0811; as for RRIRLRPPRLPRPRPRPISDPRP, -0.014; as for RRIRPRPPRLPRPRPRPFWCPRP, -0.0114.

Turning to RRIRARPPRLPRPRPRPPKKPRP, the “shrunken log2 fold change” value is 0.342.

Turning to RRIRYRPPRLPRPRPRPVGAPRP, the “shrunken log2 fold change” value stood at 0.252.

As for RRIRFRPPRLPRPRPRPTNAPRP, the “shrunken log2 fold change” value is -0.143.

For RRIRARPPRLPRPRPRPHEIPRP, the “shrunken log2 fold change” value was -0.107. In the case of RRIRHRPPRLPRPRPRPLYCPRP, the “shrunken log2 fold change” value is -0.327.

As for RRIRKRPPRLPRPRPRPCTMPRP, the “shrunken log2 fold change” value was -0.271.

As for RRIRSRPPRLPRPRPRPLHEPRP, the “shrunken log2 fold change” value came to 0.339. Take RRIRQRPPRLPRPRPRPYLWPRP: the “shrunken log2 fold change” value is -0.0736. In the case of RRIRQRPPRLPRPRPRPCKWPRP, the “shrunken log2 fold change” value is -0.0434. For the sequence RRIRKRPPRLPRPRPRPICAPRP, the “shrunken log2 fold change” value is 0.363.

Regarding RRIRWRPPRLPRPRPRPKKVPRP, the “shrunken log2 fold change” value is 0.0465. As to RRIRTRPPRLPRPRPRPAAHPRP, the “shrunken log2 fold change” value stood at 0.199. On to RRIRSRPPRLPRPRPRPSTAPRP, for which the “shrunken log2 fold change” value was -0.0171. Take RRIRRRPPRLPRPRPRPPNVPRP: the “shrunken log2 fold change” value came out at 0.115. In the case of RRIRVRPPRLPRPRPRPMQTPRP, the “shrunken log2 fold change” value is 0.00859.

Regarding RRIRIRPPRLPRPRPRPPGHPRP, the “shrunken log2 fold change” value stood at 0.11. As to RRIRKRPPRLPRPRPRPYMMPRP, the “shrunken log2 fold change” value was -0.103. In the case of RRIRDRPPRLPRPRPRPHPCPRP, the “shrunken log2 fold change” value was found to be 0.0731. On to RRIRVRPPRLPRPRPRPQENPRP, for which the “shrunken log2 fold change” value was -0.119. With RRIRQRPPRLPRPRPRPDDEPRP, the “shrunken log2 fold change” value is -0.0396. RRIRYRPPRLPRPRPRPHKFPRP: the “shrunken log2 fold change” value is -0.609. Take RRIRQRPPRLPRPRPRPYYVPRP: the “shrunken log2 fold change” value is -0.0108. Regarding RRIRCRPPRLPRPRPRPWKGPRP, the “shrunken log2 fold change” value is -0.0267. As to RRIRWRPPRLPRPRPRPVPAPRP, the “shrunken log2 fold change” value was 0.532. Take RRIRLRPPRLPRPRPRPTMYPRP: the “shrunken log2 fold change” value came to 0.163. For RRIRWRPPRLPRPRPRPSNQPRP the value was -0.561; for RRIRVRPPRLPRPRPRPALGPRP, 0.423; for RRIRMRPPRLPRPRPRPDRDPRP, 0.353.

Regarding RRIRSRPPRLPRPRPRPKFCPRP, the “shrunken log2 fold change” value was -0.471. Turning to RRIRIRPPRLPRPRPRPYFKPRP, the “shrunken log2 fold change” value is -0.511. RRIRVRPPRLPRPRPRPSHSPRP: the “shrunken log2 fold change” value was -0.171.

On to RRIRDRPPRLPRPRPRPLTEPRP, for which the “shrunken log2 fold change” value came out at 0.236. Turning to RRIRMRPPRLPRPRPRPRSTPRP, the “shrunken log2 fold change” value is 0.888.

Consider RRIRQRPPRLPRPRPRPRLLPRP, for which the “shrunken log2 fold change” value came out at 0.0504. With RRIRWRPPRLPRPRPRPWHGPRP, the “shrunken log2 fold change” value was -0.368.

In the case of RRIRERPPRLPRPRPRPALRPRP, the “shrunken log2 fold change” value worked out at 0.0887. As for RRIRNRPPRLPRPRPRPMIMPRP, the figure is -1.96.

On to RRIRYRPPRLPRPRPRPNVFPRP, for which the “shrunken log2 fold change” value is 0.0662. Regarding RRIRNRPPRLPRPRPRPSGHPRP, the “shrunken log2 fold change” value was -0.141.
